Laboratory results reported in the supplement of paper PMC10065799, “High-throughput profiling of sequence recognition by tyrosine kinases and SH2 domains using bacterial peptide display” (eLife, 2023).

Tests used:
SHP2-C SH2 = experiment: SH2 binding enrichment of the phosphorylated peptide, bacterial display (enrichment ratio); higher = better substrate or ligand; peptides without Tyr show the background
Grb2 SH2 = Grb2 SH2 (UniProt P62993); experiment: as above
c-Src SH2 = experiment: as above
AncSZ = experiment: phosphorylation enrichment, bacterial display (enrichment ratio); higher = better substrate or ligand; peptides without Tyr show the background
c-Src = experiment: as above
FGFR3 = FGFR3 (UniProt P22607); experiment: as above
EPHB1 = EPHB1 (UniProt P54762); experiment: as above
EPHB1, sequence (P54762 whole entry, looked up): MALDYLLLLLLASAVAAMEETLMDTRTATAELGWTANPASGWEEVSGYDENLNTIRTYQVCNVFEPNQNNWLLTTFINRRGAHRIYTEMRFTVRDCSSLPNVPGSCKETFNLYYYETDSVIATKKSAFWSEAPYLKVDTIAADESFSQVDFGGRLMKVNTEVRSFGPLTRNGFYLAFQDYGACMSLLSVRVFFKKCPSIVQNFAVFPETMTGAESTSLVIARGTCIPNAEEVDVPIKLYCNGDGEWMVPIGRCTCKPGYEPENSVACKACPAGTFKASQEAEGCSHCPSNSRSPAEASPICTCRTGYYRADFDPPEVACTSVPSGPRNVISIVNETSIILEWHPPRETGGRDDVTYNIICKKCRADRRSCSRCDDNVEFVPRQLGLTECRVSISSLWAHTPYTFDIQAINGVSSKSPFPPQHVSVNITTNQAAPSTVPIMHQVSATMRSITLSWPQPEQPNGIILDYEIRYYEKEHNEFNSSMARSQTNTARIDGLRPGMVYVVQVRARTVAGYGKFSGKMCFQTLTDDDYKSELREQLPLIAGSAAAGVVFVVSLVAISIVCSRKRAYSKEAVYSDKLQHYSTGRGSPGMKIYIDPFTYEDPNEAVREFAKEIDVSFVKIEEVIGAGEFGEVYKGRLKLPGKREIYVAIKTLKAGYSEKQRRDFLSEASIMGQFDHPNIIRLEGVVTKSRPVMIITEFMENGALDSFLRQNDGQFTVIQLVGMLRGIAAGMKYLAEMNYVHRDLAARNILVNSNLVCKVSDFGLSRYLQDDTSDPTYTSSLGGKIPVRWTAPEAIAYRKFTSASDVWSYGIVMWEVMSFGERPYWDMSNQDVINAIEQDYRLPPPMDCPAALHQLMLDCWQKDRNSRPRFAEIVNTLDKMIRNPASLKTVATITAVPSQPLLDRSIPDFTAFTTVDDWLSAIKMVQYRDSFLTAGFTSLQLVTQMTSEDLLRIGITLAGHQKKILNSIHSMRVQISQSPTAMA

EPHB2 = EPHB2 (UniProt P29323); experiment: as above
EPHB2, sequence (P29323 whole entry, looked up): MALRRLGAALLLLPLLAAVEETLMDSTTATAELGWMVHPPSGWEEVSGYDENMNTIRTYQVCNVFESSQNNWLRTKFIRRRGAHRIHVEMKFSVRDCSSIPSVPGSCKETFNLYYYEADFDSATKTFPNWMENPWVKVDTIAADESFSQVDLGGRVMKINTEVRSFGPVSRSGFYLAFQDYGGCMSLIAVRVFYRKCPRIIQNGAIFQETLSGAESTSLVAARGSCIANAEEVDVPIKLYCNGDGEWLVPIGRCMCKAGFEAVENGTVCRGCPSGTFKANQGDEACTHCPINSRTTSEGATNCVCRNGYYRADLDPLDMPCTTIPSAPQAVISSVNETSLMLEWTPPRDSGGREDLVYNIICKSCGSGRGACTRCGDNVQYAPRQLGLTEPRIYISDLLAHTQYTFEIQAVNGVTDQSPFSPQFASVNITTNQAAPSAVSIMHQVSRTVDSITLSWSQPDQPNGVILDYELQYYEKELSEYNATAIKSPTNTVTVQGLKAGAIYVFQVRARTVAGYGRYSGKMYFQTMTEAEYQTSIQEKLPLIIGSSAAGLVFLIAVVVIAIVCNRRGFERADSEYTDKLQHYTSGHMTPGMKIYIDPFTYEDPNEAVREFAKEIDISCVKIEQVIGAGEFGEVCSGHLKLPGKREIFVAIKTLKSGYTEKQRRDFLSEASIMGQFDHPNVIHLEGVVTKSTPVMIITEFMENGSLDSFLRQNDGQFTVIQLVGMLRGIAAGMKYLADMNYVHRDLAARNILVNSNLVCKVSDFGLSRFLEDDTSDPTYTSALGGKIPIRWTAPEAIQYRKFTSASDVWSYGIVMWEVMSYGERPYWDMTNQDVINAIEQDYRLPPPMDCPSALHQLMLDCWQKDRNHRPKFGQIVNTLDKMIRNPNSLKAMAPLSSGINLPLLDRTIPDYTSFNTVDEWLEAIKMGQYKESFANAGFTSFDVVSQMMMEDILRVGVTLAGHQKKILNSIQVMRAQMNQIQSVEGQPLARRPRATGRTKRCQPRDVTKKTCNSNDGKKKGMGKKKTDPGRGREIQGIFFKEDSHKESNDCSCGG

Hck = Hck (UniProt P08631); experiment: as above
Hck, sequence (P08631 whole entry, looked up): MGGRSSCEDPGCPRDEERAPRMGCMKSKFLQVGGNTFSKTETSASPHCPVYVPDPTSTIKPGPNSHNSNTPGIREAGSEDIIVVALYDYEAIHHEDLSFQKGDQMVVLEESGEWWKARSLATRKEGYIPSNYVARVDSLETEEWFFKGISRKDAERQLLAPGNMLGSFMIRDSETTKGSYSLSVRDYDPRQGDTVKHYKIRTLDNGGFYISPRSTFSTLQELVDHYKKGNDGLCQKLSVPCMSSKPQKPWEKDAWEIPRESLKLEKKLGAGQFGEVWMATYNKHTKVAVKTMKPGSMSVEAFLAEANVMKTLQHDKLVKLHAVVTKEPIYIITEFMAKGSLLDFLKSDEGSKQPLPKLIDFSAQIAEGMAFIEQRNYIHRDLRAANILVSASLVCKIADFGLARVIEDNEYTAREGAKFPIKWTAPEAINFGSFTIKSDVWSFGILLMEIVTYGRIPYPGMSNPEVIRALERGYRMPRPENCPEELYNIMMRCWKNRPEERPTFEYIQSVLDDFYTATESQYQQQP

MERTK = MERTK (UniProt Q12866); experiment: as above
Fyn = Fyn (UniProt P06241); experiment: as above
Fyn, sequence (P06241 whole entry, looked up): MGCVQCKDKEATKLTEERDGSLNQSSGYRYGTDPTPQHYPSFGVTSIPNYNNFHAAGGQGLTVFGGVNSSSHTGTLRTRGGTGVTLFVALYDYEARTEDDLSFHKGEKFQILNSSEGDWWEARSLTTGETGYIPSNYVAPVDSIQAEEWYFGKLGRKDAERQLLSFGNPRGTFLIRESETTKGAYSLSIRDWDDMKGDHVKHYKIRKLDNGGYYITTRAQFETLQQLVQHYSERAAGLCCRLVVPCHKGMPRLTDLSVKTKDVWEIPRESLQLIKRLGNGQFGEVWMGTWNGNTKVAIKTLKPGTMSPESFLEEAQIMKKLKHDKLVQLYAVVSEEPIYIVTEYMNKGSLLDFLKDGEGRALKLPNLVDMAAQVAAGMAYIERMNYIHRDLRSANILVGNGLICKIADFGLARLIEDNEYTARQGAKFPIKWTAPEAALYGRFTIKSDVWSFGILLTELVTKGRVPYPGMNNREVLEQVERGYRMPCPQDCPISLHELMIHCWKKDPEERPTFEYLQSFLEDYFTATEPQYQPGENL

Jak2 = Jak2 (UniProt O60674); experiment: as above
Jak2, sequence (O60674 whole entry, looked up): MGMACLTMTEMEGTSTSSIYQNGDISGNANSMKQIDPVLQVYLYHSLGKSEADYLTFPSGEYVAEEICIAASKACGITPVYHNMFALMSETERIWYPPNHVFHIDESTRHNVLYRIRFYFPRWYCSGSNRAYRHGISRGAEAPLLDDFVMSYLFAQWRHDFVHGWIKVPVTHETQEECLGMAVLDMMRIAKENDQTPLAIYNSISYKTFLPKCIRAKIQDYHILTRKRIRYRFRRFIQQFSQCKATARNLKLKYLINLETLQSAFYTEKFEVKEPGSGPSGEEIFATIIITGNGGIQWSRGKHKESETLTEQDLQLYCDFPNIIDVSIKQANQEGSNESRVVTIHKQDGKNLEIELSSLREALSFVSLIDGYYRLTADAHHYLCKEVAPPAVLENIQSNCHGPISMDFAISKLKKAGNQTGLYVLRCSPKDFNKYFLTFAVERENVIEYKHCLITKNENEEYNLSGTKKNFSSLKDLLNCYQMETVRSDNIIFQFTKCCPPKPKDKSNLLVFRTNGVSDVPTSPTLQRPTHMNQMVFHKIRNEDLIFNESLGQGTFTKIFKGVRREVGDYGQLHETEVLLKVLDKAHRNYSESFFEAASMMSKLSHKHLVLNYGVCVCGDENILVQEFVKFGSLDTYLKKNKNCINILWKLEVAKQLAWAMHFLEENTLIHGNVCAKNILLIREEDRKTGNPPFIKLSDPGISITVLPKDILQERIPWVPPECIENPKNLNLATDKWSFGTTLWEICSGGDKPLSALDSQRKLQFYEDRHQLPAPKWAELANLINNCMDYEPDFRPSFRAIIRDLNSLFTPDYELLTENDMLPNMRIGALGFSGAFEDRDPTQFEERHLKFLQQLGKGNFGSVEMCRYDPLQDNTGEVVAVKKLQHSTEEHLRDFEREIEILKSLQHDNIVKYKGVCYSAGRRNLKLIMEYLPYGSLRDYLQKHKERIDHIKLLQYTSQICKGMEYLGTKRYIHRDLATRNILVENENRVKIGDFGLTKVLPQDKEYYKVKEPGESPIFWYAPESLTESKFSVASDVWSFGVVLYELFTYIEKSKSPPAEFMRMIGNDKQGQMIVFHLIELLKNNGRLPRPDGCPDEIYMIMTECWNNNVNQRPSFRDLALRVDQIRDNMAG

Fes = Fes (UniProt P07332); experiment: as above
FGFR1 = FGFR1 (UniProt P11362); experiment: as above
FGFR1, sequence (P11362 whole entry, looked up): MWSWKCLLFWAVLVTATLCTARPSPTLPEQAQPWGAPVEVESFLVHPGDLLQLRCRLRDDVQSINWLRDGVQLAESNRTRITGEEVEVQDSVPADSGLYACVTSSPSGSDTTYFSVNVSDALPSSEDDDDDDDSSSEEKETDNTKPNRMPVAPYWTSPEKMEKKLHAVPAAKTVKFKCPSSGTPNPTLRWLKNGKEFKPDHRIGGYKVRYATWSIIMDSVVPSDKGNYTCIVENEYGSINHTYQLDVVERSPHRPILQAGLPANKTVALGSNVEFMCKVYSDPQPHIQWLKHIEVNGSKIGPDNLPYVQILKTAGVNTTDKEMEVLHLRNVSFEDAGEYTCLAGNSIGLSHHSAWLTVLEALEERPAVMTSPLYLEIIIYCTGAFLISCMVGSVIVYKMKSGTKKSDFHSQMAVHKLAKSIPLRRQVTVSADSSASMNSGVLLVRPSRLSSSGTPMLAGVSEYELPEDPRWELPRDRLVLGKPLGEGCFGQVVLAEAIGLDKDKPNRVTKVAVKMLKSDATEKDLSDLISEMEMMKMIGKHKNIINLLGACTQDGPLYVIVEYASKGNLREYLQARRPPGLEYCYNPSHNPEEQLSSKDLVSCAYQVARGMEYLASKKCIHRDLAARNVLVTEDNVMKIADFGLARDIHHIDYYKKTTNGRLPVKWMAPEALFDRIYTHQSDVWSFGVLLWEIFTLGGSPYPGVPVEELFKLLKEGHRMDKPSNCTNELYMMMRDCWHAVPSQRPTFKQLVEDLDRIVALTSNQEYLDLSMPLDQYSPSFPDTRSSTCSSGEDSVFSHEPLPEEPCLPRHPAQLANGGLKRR

Fer (mouse) = experiment: as above
c-Abl (mouse) = experiment: as above
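For SH2 binding enrichment of the phosphorylated peptide, bacterial display in this document: peptide library displayed on the E. coli surface as eCPX fusions, selected cells deep-sequenced, score is each peptide's frequency after selection divided by its frequency in the input.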
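For phosphorylation enrichment, bacterial display in this document: 11-residue human phosphosite peptides and single-mutation variants displayed on the E. coli surface, counted by deep sequencing, each peptide's frequency after selection divided by its frequency in the unselected input library; frequency after pTyr selection over input frequency; kinase dosed for 20-30% of maximal phosphorylation in three min.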

Row | Sequence | SH2 binding enrichment (SHP2-C SH2) | SH2 binding enrichment (Grb2 SH2) | SH2 binding enrichment (c-Src SH2) | phosphorylation enrichment (AncSZ) | phosphorylation enrichment (c-Src) | phosphorylation enrichment (FGFR3) | phosphorylation enrichment (EPHB1) | phosphorylation enrichment (EPHB2) | phosphorylation enrichment (Hck) | phosphorylation enrichment (MERTK) | phosphorylation enrichment (Fyn) | phosphorylation enrichment (Jak2) | phosphorylation enrichment (Fes) | phosphorylation enrichment (FGFR1) | phosphorylation enrichment (Fer (mouse)) | phosphorylation enrichment (c-Abl (mouse))
1 | GFITSYREEEQ | 0.722 | 0.681 | 0.502 | 1.19 | 0.48 | 0.631 | 0.63 | 0.775 | 0.517 | 0.489 | 0.494 | 1.04 | 1.14 | 0.468 | 0.488 | 0.769
2 | GGEAIYAAPFA [Abl_opt_1995] | 0.416 | 0.778 | 0.486 | 4 | 9.05 | 2.05 | 20.2 | 27.9 | 12.7 | 13.5 | 13.1 | 0.747 | 1.11 | 2.48 | 20.5 | 35.6
3 | GGGMIYPLDLF | 0.562 | 0.959 | 0.556 | 0.913 | 0.515 | 0.637 | 0.527 | 0.496 | 0.551 | 0.688 | 0.6 | 0.941 | 1.02 | 0.503 | 0.534 | 0.804
4 | GGRIDYIAGLV [APRT_Y60_D65V] | 0.582 | 0.692 | 0.382 | 1.19 | 0.423 | 0.717 | 0.562 | 0.604 | 0.568 | 0.389 | 0.418 | 0.871 | 1.11 | 0.496 | 0.715 | 0.573
5 | GGSSPYSRRLP [CDK13_Y351] | 0.609 | 0.709 | 0.525 | 0.549 | 0.393 | 0.39 | 0.327 | 0.314 | 0.358 | 0.414 | 0.403 | 0.4 | 0.501 | 0.393 | 0.317 | 0.504
6 | GIVEDYRPTFF [ACVRL1_Y421_P424T_YF] | 0.695 | 0.846 | 0.447 | 0.897 | 0.45 | 0.651 | 0.578 | 0.549 | 0.416 | 0.452 | 0.394 | 0.838 | 1.04 | 0.592 | 0.468 | 0.811
7 | GRRNTCYASIA [ACADM_Y352_Y352C] | 7.14 | 0.972 | 3.58 | 0.557 | 0.495 | 0.432 | 0.336 | 0.365 | 0.477 | 0.407 | 0.442 | 0.48 | 0.644 | 0.333 | 0.33 | 0.5
8 | GRRNTYYASIA [ACADM_Y352] | 0.624 | 0.779 | 0.999 | 0.653 | 0.638 | 0.454 | 0.35 | 0.477 | 0.56 | 0.774 | 0.532 | 0.735 | 0.849 | 0.45 | 0.414 | 0.572
9 | GRVFVYHLSEQ [ITGAE_Y551_R552H_YF] | 1.28 | 0.769 | 0.614 | 0.986 | 0.629 | 0.626 | 0.508 | 0.608 | 0.579 | 0.44 | 0.68 | 0.684 | 0.893 | 0.593 | 0.444 | 0.471
10 | GVLKEYGVKVL [CPS1_Y529] | 0.688 | 0.863 | 0.408 | 0.52 | 0.424 | 0.569 | 0.369 | 0.322 | 0.431 | 0.488 | 0.378 | 0.391 | 0.642 | 0.384 | 0.362 | 0.334
11 | GVTLLCFGRFN [ADGRD1_Y85_Y85C_YF] | 0.863 | 0.922 | 0.465 | 1.14 | 0.388 | 0.885 | 0.732 | 0.669 | 0.587 | 0.384 | 0.443 | 1.09 | 1.53 | 0.524 | 0.498 | 0.9
12 | GVTLLYFGRFN [ADGRD1_Y85_YF] | 1.41 | 1.27 | 0.981 | 1.54 | 0.426 | 0.794 | 0.501 | 0.676 | 0.541 | 0.389 | 0.562 | 1.32 | 1.34 | 0.448 | 0.497 | 0.817
13 | GYITSYREEEQ | 0.573 | 0.646 | 0.49 | 1.29 | 0.463 | 0.711 | 0.677 | 0.659 | 0.543 | 0.442 | 0.554 | 1.15 | 1.37 | 0.595 | 0.616 | 0.879
14 | GYKVRYATGSI [FGFR1_Y210_W213G] | 1.11 | 1.1 | 1.03 | 0.499 | 0.398 | 0.423 | 0.537 | 0.479 | 0.434 | 0.32 | 0.401 | 0.456 | 0.625 | 0.416 | 0.34 | 0.478
15 | HFPFQCHRQLY [F12_Y53_Y53C] | 1.15 | 1.21 | 1.16 | 0.689 | 0.422 | 0.564 | 0.559 | 0.645 | 0.681 | 0.597 | 0.528 | 0.861 | 1.05 | 0.639 | 0.385 | 0.532

Second part, led by results:

Row | SH2 binding enrichment (SHP2-C SH2) | SH2 binding enrichment (Grb2 SH2) | SH2 binding enrichment (c-Src SH2) | Sequence | phosphorylation enrichment (AncSZ) | phosphorylation enrichment (c-Src) | phosphorylation enrichment (FGFR3) | phosphorylation enrichment (EPHB1) | phosphorylation enrichment (EPHB2) | phosphorylation enrichment (Hck) | phosphorylation enrichment (MERTK) | phosphorylation enrichment (Fyn) | phosphorylation enrichment (Jak2) | phosphorylation enrichment (Fes) | phosphorylation enrichment (FGFR1) | phosphorylation enrichment (Fer (mouse)) | phosphorylation enrichment (c-Abl (mouse))
16 | 0.682 | 0.887 | 0.631 | GGDGSYVSVPL [TNNI3K_Y425_S430L] | 0.692 | 0.38 | 0.573 | 0.414 | 0.509 | 0.437 | 0.474 | 0.406 | 0.558 | 0.599 | 0.5 | 0.486 | 0.471
17 | 0.633 | 0.873 | 0.749 | GHEYIYVDPMQ [PDGFRA_Y574] | 5.16 | 3.65 | 11.6 | 7.52 | 10.2 | 3.75 | 4.29 | 3.2 | 1.83 | 0.917 | 14.4 | 2.92 | 8.98
18 | 1.06 | 0.967 | 0.525 | GKANRYFSPNF [PTEN_Y336_D331G] | 0.622 | 0.528 | 0.685 | 0.379 | 0.424 | 0.398 | 0.46 | 0.479 | 0.811 | 0.612 | 0.455 | 0.477 | 0.779
19 | 0.654 | 0.815 | 0.41 | GLALRCLSDHS [VWF_Y1584_Y1584C] | 0.86 | 0.503 | 0.711 | 0.592 | 0.559 | 0.59 | 0.422 | 0.515 | 0.961 | 1.16 | 0.551 | 0.518 | 0.718
20 | 0.557 | 0.732 | 0.444 | GLALRYLSDHS [VWF_Y1584] | 0.873 | 0.539 | 0.583 | 0.518 | 0.471 | 0.549 | 0.38 | 0.465 | 0.898 | 0.838 | 0.565 | 0.723 | 0.501
21 | 0.937 | 0.885 | 0.944 | GLDGSYLLRFS [SH2D1A_Y29_D33Y_YF] | 0.839 | 0.465 | 0.546 | 0.44 | 0.518 | 0.408 | 0.414 | 0.435 | 0.843 | 0.965 | 0.385 | 0.424 | 0.644
22 | 1.37 | 1.39 | 1.44 | GLIPAYHRFIM [NMNAT1_Y64_V67F] | 0.734 | 0.616 | 0.687 | 0.521 | 0.423 | 0.494 | 0.593 | 0.535 | 1.31 | 0.822 | 0.553 | 0.418 | 0.619
23 | 0.856 | 1.07 | 1.2 | GLIPAYHRVIM [NMNAT1_Y64] | 0.881 | 0.414 | 0.612 | 0.571 | 0.504 | 0.543 | 0.408 | 0.558 | 1.16 | 0.963 | 0.572 | 0.502 | 0.662
24 | 1.19 | 1.12 | 0.663 | GLVFLYVEKNQ [PRELP_Y156_M157V] | 1.22 | 0.479 | 0.902 | 0.6 | 0.622 | 0.532 | 0.337 | 0.505 | 1.15 | 1.29 | 0.44 | 0.575 | 0.759
25 | 0.707 | 0.982 | 0.422 | GPRKAYELSQR [SETX_Y1297] | 0.464 | 0.412 | 0.355 | 0.343 | 0.328 | 0.389 | 0.409 | 0.401 | 0.558 | 0.539 | 0.422 | 0.381 | 0.492
26 | 0.49 | 1.02 | 0.518 | GRDQPYSGTGD [TYRO3_Y828_A831T] | 0.667 | 0.441 | 0.52 | 0.385 | 0.43 | 0.481 | 0.492 | 0.549 | 0.713 | 0.757 | 0.49 | 0.526 | 0.673
27 | 1.33 | 1.25 | 0.945 | GRQWNYVASML [KLHL4_Y552_S557L] | 0.731 | 0.391 | 0.565 | 0.405 | 0.481 | 0.418 | 0.367 | 0.434 | 0.737 | 0.809 | 0.382 | 0.366 | 0.591
28 | 0.966 | 1.04 | 0.767 | GRQWNYVASMS [KLHL4_Y552] | 0.799 | 0.371 | 0.539 | 0.508 | 0.549 | 0.4 | 0.395 | 0.419 | 0.618 | 0.754 | 0.434 | 0.355 | 0.719
29 | 0.612 | 0.881 | 0.632 | GSQERDFELVE [TSC2_Y407_Y407D] | 1.08 | 0.523 | 0.717 | 0.466 | 0.492 | 0.493 | 0.484 | 0.522 | 1.07 | 1.04 | 0.489 | 0.46 | 0.69
30 | 0.524 | 0.888 | 0.65 | GVASDYKCIDP [VPS13B_Y1991] | 1.08 | 0.427 | 0.827 | 0.739 | 0.589 | 0.747 | 0.365 | 0.548 | 0.703 | 1.01 | 0.724 | 0.587 | 0.496
31 | 0.796 | 0.798 | 1.85 | GYEEAYSVSKK [PAFAH1B1_Y28_F31S] | 0.893 | 0.601 | 0.607 | 0.491 | 0.432 | 0.447 | 0.367 | 0.435 | 0.661 | 1.01 | 0.364 | 0.469 | 0.536
32 | 1.26 | 1.18 | 1.28 | HAVYVCDICHV [TWNK_Y508_Y508C] | 1.1 | 0.916 | 0.904 | 1.79 | 2.06 | 0.826 | 0.524 | 0.627 | 1.01 | 1.42 | 0.628 | 0.775 | 0.972
33 | 0.898 | 0.87 | 0.867 | HAVYVYDICHV [TWNK_Y508] | 1.68 | 5.04 | 1.41 | 5.08 | 6.29 | 4.08 | 5.12 | 7.09 | 1.01 | 1.31 | 1.59 | 6.45 | 1.18
